Results published in paper PMC5993293.

Key:
[1] = target: GST-TA3mut (functionally impaired TA3 mutant, aa 361-370 replaced by alanines, fused to GST) (mouse) (UniProt Q04207); experiment: affinity purification with mass spectrometry; SILAC; GST baits (GST-TA3, GST-TA3mut) immobilised; nuclear extracts of TNF-α-treated HeLa S3 cells or of 3T3 fibroblasts, 4 hours at 4°C; wash 20 mM Hepes pH 7.6, 1 mM EDTA, 10% glycerol, 0.1% NP40, 100 mM KCl; elution with 0.2% sarkosyl; label swap, four biological replicates
UniProt Q04207, sequence (Q04207 other isoform, or with tags, fused parts or gaps, change not shown): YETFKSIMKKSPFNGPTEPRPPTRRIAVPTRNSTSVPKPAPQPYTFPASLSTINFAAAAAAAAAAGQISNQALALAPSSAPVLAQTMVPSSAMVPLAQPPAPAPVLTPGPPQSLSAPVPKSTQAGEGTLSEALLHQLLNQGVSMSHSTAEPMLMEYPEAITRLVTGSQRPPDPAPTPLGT

[2] = target: GST-TA3mut (functionally impaired TA3 mutant, aa 361-370 replaced by alanines, fused to GST) (mouse) (UniProt Q04207); experiment: pull-down; GST alone, GST-TA3 or GST-TA3mut as baits; transfected HEK-293 cells overexpressing tagged Zbtb7a; Zbtb7a detected by immunoblotting

Row | fold reduction of binding against unmutated TA3 [1] | fold reduction of binding against unmutated TA3 [2] | Substance
1 | 5 to 7 times | – | Zbtb7a, endogenous in nuclear extracts of TNF-α-stimulated human HeLa S3 cells (from UniProt O95365 1-584) (natural protein)
2 | – | 2 times | tagged Zbtb7a overexpressed in transfected HEK-293 cells (from UniProt O88939 1-569) (natural protein)
